Article PMC12152739

B1: NDM-1 (Klebsiella pneumoniae) (protein)
chain: METGDQRFGDLVFRQLAPNVWQHTSYLDMPGFGAVASNGLIVRDGGRVLVVDTAWTDDQTAQILNWIKQEINLPVALAVVTHAHQDKMGGMDALHAAGIATYANALSNQLAPQEGMVAAQHSLTFAANGWVEPATAPNFGPLKVFYPGPGHTSDNITVGIDGTDIAFGGCLIKDSKAKSLGNLGDADTEHYAASARAFGAAFPKASMIVMSHSAPDSRAAITHTARMADKLR
B2: IMP-1 (Serratia marcescens) (protein)
chain: TAAESLPDLKIEKLDEGVYVHTSFEEVNGWGVVPKHGLVVLVNAEAYLIDTPFTAKDTEKLVTWFVERGYKIKGSISSHFHSDSTGGIEWLNSRSIPTYASELTNELLKKDGKVQATNSFSGVNYWLVKNKIEVFYPGPGHTPDNVVVWLPERKILFGGCFIKPYGLGNLGDANIEAWPKSAKLLKSKYGKAKLVVPSHSEVGDASLLKLTLEQAVKGLNESKKPSKPSN

Key:
Format in all cases: biochemical
[1] = substrate: CC(C)(O/N=C(\C(=O)N[C@@H]1C(=O)N2C(C(=O)[O-])=C(C[N+]3(CCNC(=O)c4ccc(O)c(O)c4Cl)CCCC3)CS[C@H]12)c1csc(N)n1)C(=O)O; test: Steady-state hydrolysis kinetics and UV difference spectra with purified NDM-1; details: other: substrate hydrolysis by NDM-1, 30 °C, pH 7.5
[2] = substrate: CC(C)(O/N=C(\C(=O)N[C@@H]1C(=O)N2C(C(=O)[O-])=C(C[n+]3ccccc3)CS[C@H]12)c1csc(N)n1)C(=O)O; test: as above; details: other: substrate hydrolysis by NDM-1, 30 °C, pH 7.5
[3] = substrate: CC(C)(O/N=C(\C(=O)N[C@@H]1C(=O)N2C(C(=O)[O-])=C(C[N+]3(CCNC(=O)c4ccc(O)c(O)c4Cl)CCCC3)CS[C@H]12)c1csc(N)n1)C(=O)O; test: Steady-state hydrolysis kinetics and UV difference spectra with purified IMP-1; details: other: FDC hydrolysis by IMP-1, 30 °C, pH 7.5

Protein	kcat [1] [s⁻¹]	kcat [2] [s⁻¹]	kcat/Km [2] [M⁻¹ s⁻¹]	kcat [3] [s⁻¹]
B1	84 ± 11	187 ± 13	4.16e+06	–
B2	–	–	–	1.25 ± 0.23
